# Laboratory results published in paper PMC11840927, “Frataxin Traps Low Abundance Quaternary Structure to Stimulate Human Fe–S Cluster Biosynthesis” (Biochemistry, 2025).
# B1: Escherichia coli acyl-carrier protein (natural protein)
# chain: MSTIEERVKKIIGEQLGVKQEEVTNNASFVEDLGADSLDTVELVMALEEEFDTEIPDEEAEKITTVQAAIDYINGHQA
# modifications: acyl-4′PPT (assumed mass 523 Da)
# notes: Escherichia coli acyl-carrier protein (ACPec) associated with NFS1-ISD11; The ACP chain of m1; also called ACPec; ACP; source: co-purified within the SDAec complex
# Key:
# [1] = molecular target: SDAec complex with the Q64S, P299H, L300Q NFS1 triple variant (human | Escherichia coli) (UniProt Q9Y697)
# [2] = molecular target: T1, NFS1(Δ1–55) with N-terminal His6 tag (human, UniProt Q9Y697 56-457, covalently attached PLP); assay: native MS; protomer exchange: 1:1 mix of 15N- and 14N-labelled SDAec (or His-tagged and untagged IscS), room temperature, 200 mM ammonium acetate pH 8.5, EMR Orbitrap; ratio of exchanged dimer to the sum of unexchanged dimers; α2β2γ2 (or IscS dimer) to protomers and back; details: both partners purified
# T1 construct: NFS1, human cysteine desulfurase, Δ1–55 (residues 56 to the C-terminus); The NFS1 chain of m1; also called α subunit; source: recombinant, co-purified within the SDAec complex; not shown: His6, N-terminal, kept
molecule,measurement,setting,value
FXN (Δ1–81) (from UniProt Q16595 82-210) (natural protein),FXN-stimulated cysteine desulfurase activity (μM S^2–/min·μM NFS1),[1],8
B1,binding result,[2],binds
